Patent US7078197

Target: 35S-labeled mRNA-peptide fusion prepared from mRNA 1 crosslinked to linker B, encoding the Flag and Strep-Tag II epitope
Assay: precipitation of 35S-labeled fusion on affinity resin, wash, scintillation counting

Row | fusion binding (percent bound) [%] | Substance
1 | 54 | Anti-Flag M2 Affinity Gel (Sigma, MO) (antibody)
2 | 62 | StrepTactin Sepharose (Genosys, Tex.)
